What was measured:
[1] = biological target: CCR5 (Homo sapiens (Human)) (UniProt P51681)
[2] = biological target: CCR5 (Homo sapiens (Human)) (UniProt P51681); remark: listed apart in the source
[3] = biological target: CCR5 (Homo sapiens (Human)) (UniProt P51681); remark: listed apart in the source

inhibition of envelope-mediated cell fusion [1] | Mean Relative Potency (IC50 in the envelope-mediated cell fusion assay, relative to AOP-RANTES = 100) (relative to AOP-RANTES = 100) [2] | Average Infectivity IC50 (cell-free viral infection assay) [3] | Cell-Fusion Result For Comparison (IC50) [3] | Substance
> 50 % inhibition | 2 | – | – | NNY-P2Thz-Y3Chg-RANTES (4-68) (from UniProt P13501) (ligand)
> 50 % inhibition | 4 | – | – | NNY-P2Thz-Y3tButA-RANTES (4-68) (from UniProt P13501) (ligand)
> 50 % inhibition | 7 | 0.012 nM | 0.026 nM | NNY-P-Y3Chg-RANTES (4-68) (from UniProt P13501) (ligand)
> 50 % inhibition | 7 | 0.014 nM | 0.038 nM | NNY-P-Y3tbuA-RANTES (4-68) (from UniProt P13501) (ligand)
